Measured values from patent US20180142030A1 (Bristol-Myers Squibb, published 2018).

T1: FcγRIIa-R131 (human, UniProt P12318 34-218, limits assumed)
T1 construct: Construct not described
T1 sequence (looked up): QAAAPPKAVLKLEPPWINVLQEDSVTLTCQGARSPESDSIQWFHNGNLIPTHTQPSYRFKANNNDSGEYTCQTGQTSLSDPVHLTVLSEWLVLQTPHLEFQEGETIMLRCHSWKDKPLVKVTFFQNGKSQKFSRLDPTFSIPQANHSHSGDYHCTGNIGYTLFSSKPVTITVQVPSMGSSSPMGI

T2: FcγRIIb (human, UniProt P31994 43-217, limits assumed)
T2 construct: Construct not described; also called hCD32b/FcγRIIb
T2 sequence (looked up): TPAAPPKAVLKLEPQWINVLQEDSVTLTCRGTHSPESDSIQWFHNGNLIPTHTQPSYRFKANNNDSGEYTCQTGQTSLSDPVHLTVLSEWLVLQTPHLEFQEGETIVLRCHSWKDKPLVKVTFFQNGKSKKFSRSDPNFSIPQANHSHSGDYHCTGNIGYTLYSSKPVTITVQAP

T3: FcγRIIa-H131 (human, UniProt P12318 34-218, limits assumed)
T3 construct: Construct not described; also called hCD32a/FcγRIIa-H131
T3 sequence (looked up): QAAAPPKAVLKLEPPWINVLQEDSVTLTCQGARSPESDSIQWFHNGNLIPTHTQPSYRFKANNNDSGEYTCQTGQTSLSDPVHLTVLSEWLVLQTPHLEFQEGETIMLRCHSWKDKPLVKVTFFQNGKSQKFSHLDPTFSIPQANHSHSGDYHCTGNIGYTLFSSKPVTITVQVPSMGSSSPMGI


Columns and labels:
[1] = target: T4, recombinant human CD40 monomer (human, UniProt P25942 21-193); experiment: BLI (Octet RED); run in parallel with 5F11-45
T4 construct: also called huCD40-monomer; soluble human CD40
T4 sequence (P25942 21-193 limits assumed): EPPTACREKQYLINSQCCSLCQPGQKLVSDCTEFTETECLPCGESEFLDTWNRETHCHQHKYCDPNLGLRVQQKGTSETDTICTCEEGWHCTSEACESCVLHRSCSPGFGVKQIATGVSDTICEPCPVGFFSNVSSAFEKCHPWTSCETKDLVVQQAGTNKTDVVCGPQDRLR

[2] = target: T4, recombinant human CD40 monomer; experiment: BLI (Octet RED); antibody supernatant captured on protein A sensors, huCD40-monomer in solution
From the text: The closest matching human germline region sequence was selected for each mouse variable domain, and these human framework regions were used to replace murine frameworks in the “CDR graft” versions of the antibodies. Additional amino acid substitutions, such as framework back-mutations, were then made as necessary to restore the binding affinity of the humanized antibody. Further amino acid substitutions were made to eliminate sequence liabilities. The sequence relationships between the various forms of the antibodies of the present invention are provided at Table 6. The binding of various agonistic anti-huCD40 antibodies to soluble human CD40 was determined by Biolayer Interferometry (BLI) analysis using a Fortebio Octet RED (Rapid system—Extended Detection) label-free interaction analysis instrument. All studies were performed in 10 mM NaₓPO₄, 130 mM NaCl, 0.05% Surfactant P20 (pH 7.1) at 25° C. Briefly, anti-huCD40 antibody supernatants (diluted to 10 μg/ml or captured undiluted if supernatant concentration was less than 10 μg/ml) were captured on protein A coated biosensors (Pall Fortebio #18-5010) using a loading time of 90 s and shake speed of 1000 rpm. Supernatants were first screened for binding to 1 μM recombinant human CD40 monomer (huCD40-monomer) using 180 s association and dissociation times, at 1000 rpm, with two 15 s conditioning steps using 10 mM glycine pH 1.5 in between binding cycles.

FcγRIIa-R131 = target: T1, FcγRIIa-R131; experiment: BLI (ForteBio Octet), %Rmax at 10 µM FcγRIIa-R131 (CD32a-R131 on the sheet)
Method: (§1) See Example 8. Antibody names including “-sup” represent supernatants from antibody producing cells, whereas others are purified antibodies. Data are presented as percentages of a maximum receptor binding value for each combination of antibody and receptor, as measured in a ForteBio Octet system. See, e.g., Example 3. Each cluster of three bars represents, from left to right, binding to hCD32a/FcγRIIa-H131 (10 μM) (hatched bars), […] (10 μM) (black bars), and hCD32b/FcγRIIb (1 μM) (white bars).
(§2) Supernatants were obtained from cells expressing these antibodies and assayed for binding to hCD32/FcγRII. Selected purified antibodies without mutations at position 270 were used as controls.

FcγRIIb = target: T2, FcγRIIb; experiment: BLI (ForteBio Octet), %Rmax at 1 µM hCD32b/FcγRIIb
Method: as §1, §2

FcγRIIa-H131 [3] = target: T3, FcγRIIa-H131; experiment: BLI (ForteBio Octet), %Rmax at 10 µM hCD32a/FcγRIIa-H131
Method: as §1, §2

FcγRIIa-H131 [4] = target: T3, FcγRIIa-H131; experiment: BLI (ForteBio Octet), % of maximum receptor binding (%Rmax) at 10 µM hCD32a/FcγRIIa-H131
Method: as §1, §2

Kd [1] [nM]	Kd [2] [nM]	binding result (FcγRIIa-R131)	binding result (FcγRIIb)	binding result (FcγRIIa-H131 [3])	binding result (FcγRIIa-H131 [4])	Binder
8.2	4.7	–	–	–	–	5F11 (parental) (antibody, V domains shown, Mouse variable domains; also called 1802.3717.5F11.A11.E7; mAb 5F11) VH: QVQLQQSAAELARPGASVKMSCKASGYTFTDLSMHWIKQRPGQGLEWIGYITPSSGYTAYNQKFKGKTTLTADKSSSTAYMQLSSLTSEDSAVYYCARLILQRGAYWGQGTLVTVSA VL: DIVLTQSPASLAVSLGQRATISCRASKNVDSYGNSFMHWYQQKPGQPPKLLIYRASNLESGIPARFGGSGSGTDFTLTINPVEADDVATYYCQQSNEDPLTFGAGTKLELK
–	–	binds	binds	binds	–	5F11-45 V9 D270E (antibody, human IgG1, kappa) heavy: QVQLVQSGAEVKKPGSSVKVSCKASGYTFTDLSMHWVRQAPGQGLEWMGYITPSSGYTAYNQKFKGKTTLTADKSTSTAYMELSSLRSEDTAVYYCARLILQRGAYWGQGTLVTVSSASTKGPSVFPLAPSSKSTSGGTAALGCLVKDYFPEPVTVSWNSGALTSGVHTFPAVLQSSGLYSLSSVVTVPSSSLGTQTYICNVNHKPSNTKVDKRVEPKSCDKTHTCPPCPAPELLGDDSVFLFPPKPKDTLMISRTPEVTCVVVDVSHEEGEVKFNWYVDGVEVHNAKTKPREEQYNSTYRVVSVLTVLHQDWLNGKEYKCKVSNKALPRPIEKTISKAKGQPREPQVYTLPPSREEMTKNQVSLTCLVKGFYPSDIAVEWESNGQPENNYKTTPPVLDSDGSFFLYSKLTVDKSRWQQGNVFSCSVMHEALHNHYTQKSLSLSPG light: DIVLTQSPDSLAVSLGERATINCRASKNVDSYGNSFMHWYQQKPGQPPKLLIYRASNLESGVPDRFSGSGSGTDFTLTISSLQAEDVAVYYCQQSNEDPLTFGQGTKLEIKRTVAAPSVFIFPPSDEQLKSGTASVVCLLNNFYPREAKVQWKVDNALQSGNSQESVTEQDSKDSTYSLSSTLTLSKADYEKHKVYACEVTHQGLSSPVTKSFNRGEC
–	–	binds	binds	binds	–	5F11-45-V9-DA-sup (antibody, human IgG1, kappa, Tested as supernatant of antibody-producing cells; also called 5F11-45 V9 D270A) heavy chain: QVQLVQSGAEVKKPGSSVKVSCKASGYTFTDLSMHWVRQAPGQGLEWMGYITPSSGYTAYNQKFKGKTTLTADKSTSTAYMELSSLRSEDTAVYYCARLILQRGAYWGQGTLVTVSSASTKGPSVFPLAPSSKSTSGGTAALGCLVKDYFPEPVTVSWNSGALTSGVHTFPAVLQSSGLYSLSSVVTVPSSSLGTQTYICNVNHKPSNTKVDKRVEPKSCDKTHTCPPCPAPELLGDDSVFLFPPKPKDTLMISRTPEVTCVVVDVSHEAGEVKFNWYVDGVEVHNAKTKPREEQYNSTYRVVSVLTVLHQDWLNGKEYKCKVSNKALPRPIEKTISKAKGQPREPQVYTLPPSREEMTKNQVSLTCLVKGFYPSDIAVEWESNGQPENNYKTTPPVLDSDGSFFLYSKLTVDKSRWQQGNVFSCSVMHEALHNHYTQKSLSLSPG light chain: DIVLTQSPDSLAVSLGERATINCRASKNVDSYGNSFMHWYQQKPGQPPKLLIYRASNLESGVPDRFSGSGSGTDFTLTISSLQAEDVAVYYCQQSNEDPLTFGQGTKLEIKRTVAAPSVFIFPPSDEQLKSGTASVVCLLNNFYPREAKVQWKVDNALQSGNSQESVTEQDSKDSTYSLSSTLTLSKADYEKHKVYACEVTHQGLSSPVTKSFNRGEC
–	–	binds	binds	binds	–	5F11-45-V9-DS-sup (antibody, human IgG1, kappa, Tested as supernatant of antibody-producing cells; also called 5F11-45 V9 D270S) heavy chain: QVQLVQSGAEVKKPGSSVKVSCKASGYTFTDLSMHWVRQAPGQGLEWMGYITPSSGYTAYNQKFKGKTTLTADKSTSTAYMELSSLRSEDTAVYYCARLILQRGAYWGQGTLVTVSSASTKGPSVFPLAPSSKSTSGGTAALGCLVKDYFPEPVTVSWNSGALTSGVHTFPAVLQSSGLYSLSSVVTVPSSSLGTQTYICNVNHKPSNTKVDKRVEPKSCDKTHTCPPCPAPELLGDDSVFLFPPKPKDTLMISRTPEVTCVVVDVSHESGEVKFNWYVDGVEVHNAKTKPREEQYNSTYRVVSVLTVLHQDWLNGKEYKCKVSNKALPRPIEKTISKAKGQPREPQVYTLPPSREEMTKNQVSLTCLVKGFYPSDIAVEWESNGQPENNYKTTPPVLDSDGSFFLYSKLTVDKSRWQQGNVFSCSVMHEALHNHYTQKSLSLSPG light chain: DIVLTQSPDSLAVSLGERATINCRASKNVDSYGNSFMHWYQQKPGQPPKLLIYRASNLESGVPDRFSGSGSGTDFTLTISSLQAEDVAVYYCQQSNEDPLTFGQGTKLEIKRTVAAPSVFIFPPSDEQLKSGTASVVCLLNNFYPREAKVQWKVDNALQSGNSQESVTEQDSKDSTYSLSSTLTLSKADYEKHKVYACEVTHQGLSSPVTKSFNRGEC
–	–	binds	binds	binds	–	5F11-45-V9-DQ-sup (antibody, human IgG1, kappa, Tested as supernatant of antibody-producing cells; also called 5F11-45 V9 D270Q) heavy chain: QVQLVQSGAEVKKPGSSVKVSCKASGYTFTDLSMHWVRQAPGQGLEWMGYITPSSGYTAYNQKFKGKTTLTADKSTSTAYMELSSLRSEDTAVYYCARLILQRGAYWGQGTLVTVSSASTKGPSVFPLAPSSKSTSGGTAALGCLVKDYFPEPVTVSWNSGALTSGVHTFPAVLQSSGLYSLSSVVTVPSSSLGTQTYICNVNHKPSNTKVDKRVEPKSCDKTHTCPPCPAPELLGDDSVFLFPPKPKDTLMISRTPEVTCVVVDVSHEQGEVKFNWYVDGVEVHNAKTKPREEQYNSTYRVVSVLTVLHQDWLNGKEYKCKVSNKALPRPIEKTISKAKGQPREPQVYTLPPSREEMTKNQVSLTCLVKGFYPSDIAVEWESNGQPENNYKTTPPVLDSDGSFFLYSKLTVDKSRWQQGNVFSCSVMHEALHNHYTQKSLSLSPG light chain: DIVLTQSPDSLAVSLGERATINCRASKNVDSYGNSFMHWYQQKPGQPPKLLIYRASNLESGVPDRFSGSGSGTDFTLTISSLQAEDVAVYYCQQSNEDPLTFGQGTKLEIKRTVAAPSVFIFPPSDEQLKSGTASVVCLLNNFYPREAKVQWKVDNALQSGNSQESVTEQDSKDSTYSLSSTLTLSKADYEKHKVYACEVTHQGLSSPVTKSFNRGEC
–	–	binds	binds	–	binds	12D6-24 V4 (antibody, human IgG1, kappa) heavy: not shown light: DIVMTQTPLSLPVTPGEPASISCRSSQSLVHSNANTYLHWYLQKPGQSPQLLIYKLTNRFFGVPDRFSGSGSGTDFTLKISRVEAEDVGVYYCSQSIHVPWTFGGGTKVEIKRTVAAPSVFIFPPSDEQLKSGTASVVCLLNNFYPREAKVQWKVDNALQSGNSQESVTEQDSKDSTYSLSSTLTLSKADYEKHKVYACEVTHQGLSSPVTKSFNRGEC
